According to US20220025002A1 (INSTITUT PASTEUR, published 2022):
Bridges are numbered along the chain shown (N, C = ends). Where no end group is shown, it is not given here. [ ]: non-standard residue; d: D form. GluOMe = glutamic acid methyl ester; R8 = C=CCCCCCC[C@@](C)(N)C(=O)O; S5 = C=CCCC[C@](C)(N)C(=O)O; Aib = CC(C)(N)C(=O)O

Columns and labels:
[1] = biological target: T1, NEMO (NF-kB essential modulator) in 70Z3-C3 pre-B lymphocytes (UniProt O88522 1-412, limits assumed); assay: cell-based or functional assay
[2] = biological target: NEMO (NF-kB essential modulator), human, in DLBCL cell lines (human, UniProt Q9Y6K9 1-419); assay: cell-based or functional assay
[3] = biological target: T2, CC2-LZ domain of NEMO (mouse CC2-LZ) (mouse, UniProt O88522 251-337, limits assumed); assay: fluorescence polarization, labelled peptide fixed at 0.1 µM, CC2-LZ titrated
T2 construct: domain: CC2-LZ; The methods say that the mouse CC2-LZ was used in the fluorescence anisotropy assay; also called NOA; UBAN
Experimental: (§1) Anisotropy data were calculated using the Magellan software version 6.5. Prior experiments, the mouse CC2-LZ was extensively dialyzed in binding buffer containing 20 mM HEPES pH 7.4, 100 mM NaCl, and 0.05% P20 detergent (v/v). All experiments were performed in a 384 well plate (vol 25 μl) at room temperature. The BODIPY®-labeled peptide concentrations were fixed at 0.1 or 10 μM whereas the CC2-LZ concentration varied from 0 to 100 μM. Reference calibrated at 22 mP, was based on the fluorescence of the peptide alone. Each experimental binding curve was determined from at least 10 independent concentration points. The G-factor was calculated as previously described in Agou et al. [7], with a value of 0.75, which was observed constant within 5% upon all titrations. For analysis, the blank value corresponding to the value of buffer alone, was subtracted from all titration data. The integration time was 20 μs. Experiments were done in duplicate, and the KD was estimated by fitting the anisotropy data with the rectangular hyperbolic binding equation, using KaleidaGraph software as described elsewhere [1].
(§2) For each peptide titration, various concentration of the target ranging from 0 to 100 μM and a fixed concentration of peptide at 0.1 or 10 μM were used at 25° C. […] For these reasons, all further titration experiments were performed with a fixed peptide concentration of 0.1 μM unless otherwise indicated.

[4] = biological target: T1, NEMO (NF-kB essential modulator) in …; assay: cell-based or functional assay; remark: listed apart in the source
[5] = biological target: T2, CC2-LZ domain of NEMO (mouse CC2-LZ); assay: fluorescence polarization, labelled peptide fixed at 10 µM, CC2-LZ titrated
Experimental: as §1, §2

[6] = biological target: T2, CC2-LZ domain of NEMO (mouse CC2-LZ); assay: fluorescence polarization, labelled peptide, CC2-LZ titrated

T2 sequence (O88522 251-337 limits assumed): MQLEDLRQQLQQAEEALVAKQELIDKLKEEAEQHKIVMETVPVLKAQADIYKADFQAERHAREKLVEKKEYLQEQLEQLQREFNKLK
T1 sequence (O88522 whole entry): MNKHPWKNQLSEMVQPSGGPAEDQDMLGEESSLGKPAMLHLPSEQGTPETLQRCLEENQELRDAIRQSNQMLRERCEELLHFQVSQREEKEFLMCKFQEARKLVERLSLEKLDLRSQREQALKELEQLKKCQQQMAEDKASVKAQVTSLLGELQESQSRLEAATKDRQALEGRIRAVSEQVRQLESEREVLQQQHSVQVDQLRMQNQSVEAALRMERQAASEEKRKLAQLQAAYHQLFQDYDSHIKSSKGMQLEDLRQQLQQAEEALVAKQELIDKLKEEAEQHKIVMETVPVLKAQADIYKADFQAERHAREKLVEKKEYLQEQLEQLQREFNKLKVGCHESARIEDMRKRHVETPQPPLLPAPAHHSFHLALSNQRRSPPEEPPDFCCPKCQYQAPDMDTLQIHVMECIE
NEMO (NF-kB essential modulator), human, in DLBCL cell lines, sequence (Q9Y6K9 whole entry, the tested form may be a part): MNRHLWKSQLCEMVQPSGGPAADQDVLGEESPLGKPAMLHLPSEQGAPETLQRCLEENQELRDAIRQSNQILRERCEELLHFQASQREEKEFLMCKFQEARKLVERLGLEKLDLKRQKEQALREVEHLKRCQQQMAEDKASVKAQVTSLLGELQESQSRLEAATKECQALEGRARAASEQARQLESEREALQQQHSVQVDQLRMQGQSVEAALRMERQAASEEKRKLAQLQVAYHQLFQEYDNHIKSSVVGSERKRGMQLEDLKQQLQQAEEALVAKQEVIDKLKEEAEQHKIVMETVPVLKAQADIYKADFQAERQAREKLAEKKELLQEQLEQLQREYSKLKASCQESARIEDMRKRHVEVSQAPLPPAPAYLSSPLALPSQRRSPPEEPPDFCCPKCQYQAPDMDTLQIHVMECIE

LKAQA[S5]IYK[S5]RFQAQRHARQK (staple 6-10) [UBI-SAHN D306-A310 with the double substitution Glu-Gln (E315Q E320Q)]
IC50, NF-κB inhibition in 70Z3-C3 reporter cells [1]: 1.3 µM

RQIKIWFQNRRMKWKKLKAQA[R8]IYKARF[S5]AERHAREK (staple 22-29; also: staple conformer not given here) [A-UBI-SAHN D306-Q313 (conformer not stated)]
EC50 of cell death, HLY1 cells, depending on incubation time [2]: 0.65 to 1.1 µM | EC50 of cell death, OCY-Ly3 cells, 7 h [2]: 2.6 µM | EC50 of cell death, OCY-Ly3 cells, 24 h [2]: 2.1 µM | EC50 of cell death, OCY-Ly3 cells, 48 h [2]: 5 µM

CRQIKIWFQNRRMKWKKLK[Aib]Q[Aib]DIYK[Aib]RFQ[Aib]ERH[Aib]REK (also: N-terminal Cys labelled with BODIPY or FITC) [A-UBI-AIB]
Kd [3]: 5 µM | IC 50(µM), NF-κB inhibition in LPS-stimulated 70Z3-C3 lacZ reporter cells [4]: 1.5 µM | Kd [5]: 24 µM

B1: A-UBI-SAHN A310-A314 (peptide)
peptide: Ac-CRQIKIWFQNRRMKWKKLKAQADIYK[S5]RFQ[S5]ERHAREK-NH2
modifications: staple 27-31; also: N-terminal Cys thiol labelled with BODIPY or FITC (BODIPY FL maleimide)
notes: Stapled i,i+4 with N-terminal antennapedia
Kd [3]: 0.2 µM | IC 50(µM), NF-κB inhibition in LPS-stimulated 70Z3-C3 lacZ reporter cells [4]: 0.43 µM | Kd [5]: 21 µM

B2: A-UBI-SAHN D306-Q313, conformer A (peptide)
peptide: Ac-CRQIKIWFQNRRMKWKKLKAQA[R8]IYKARF[S5]AERHAREK-NH2
modifications: staple 23-30; also: extra N-terminal Cys labelled with BODIPY or FITC (label not settled), staple isomer A (cis)
notes: With N-terminal antennapedia; also called A-UBI-SAHND306-Q313 (A)
Kd [3]: 0.06 µM | IC 50(µM), NF-κB inhibition in LPS-stimulated 70Z3-C3 lacZ reporter cells [4]: 0.6 µM

B3: A-UBI-SAHN A303-A310, conformer B (peptide)
peptide: Ac-CRQIKIWFQNRRMKWKKLK[R8]QADIYK[S5]RFQAERHAREK-NH2
modifications: staple 20-27; also: Cys1 thiol labelled with BODIPY or FITC (which one not fixed), conformer B
notes: With N-terminal antennapedia
Kd [3]: 0.02 µM | IC 50(µM), NF-κB inhibition in LPS-stimulated 70Z3-C3 lacZ reporter cells [4]: 0.6 µM

B4: UBI-SAHN D306-Q313 OMe (peptide)
peptide: Ac-CLKAQA[R8]IYKARF[S5]A[GluOMe]RHAR[GluOMe]K
modifications: staple 7-14; also: N-terminal Cys labelled with BODIPY or FITC (which one not given here)
notes: also called D306 R8-Q313 S5 E315MeGlu E320MeGlu
Kd [6]: 24 µM | IC50, NF-κB inhibition in 70Z3-C3 reporter cells [1]: 1.9 µM

B5: UBI-SAHN D306-Q313 Q/Q (peptide)
peptide: Ac-CLKAQA[R8]IYKARF[S5]AQRHARQK
modifications: staple 7-14; not fully specified (C-terminus); printed as LKAQAX2IYKARFX5AQRHARQK; also: extra N-terminal Cys labelled with BODIPY or FITC, staple cis/trans isomer not given here
notes: also called D306 R8-Q313 S5 E315Q E320Q
Kd [6]: 23 µM | IC50, NF-κB inhibition in 70Z3-C3 reporter cells [1]: 0.8 µM

B6: UBI-SAHN A310-A314 (peptide)
peptide: Ac-CLKAQADIYK[S5]RFQ[S5]ERHAREK
modifications: staple 11-15; also: N-terminal Cys thiol labelled with BODIPY or FITC (BODIPY FL maleimide)
notes: Stapled i,i+4; also called A310S5-A314 S5
Kd [3]: ~360 µM

B7: UBI-SAHN A303-I307 (peptide)
peptide: Ac-CLK[S5]QAD[S5]YKARFQAERHAREK
modifications: staple 4-8; also: N-terminal Cys thiol labelled with BODIPY or FITC (BODIPY FL maleimide)
notes: Stapled i,i+4; also called A303 S5-I307 S5
Kd [3]: ~360 µM

B8: UBI-SAHN D306-A310 (peptide)
peptide: Ac-CLKAQA[S5]IYK[S5]RFQAERHAREK
modifications: staple 7-11; also: N-terminal Cys labelled with BODIPY or FITC, which one is not given here
notes: Stapled i,i+4; also called D306 R8-A310 S5
Kd [3]: 85 µM

B9: A-UBI-SAHN D306-Q313, conformer B (peptide)
peptide: Ac-CRQIKIWFQNRRMKWKKLKAQA[R8]IYKARF[S5]AERHAREK-NH2
modifications: staple 23-30; also: extra N-terminal Cys labelled with BODIPY or FITC (label not settled), staple isomer B (trans)
notes: With N-terminal antennapedia; also called A-UBI-SAHND306-Q313 (B)
Kd [3]: 0.05 µM

B10: UBI-SAHN A303-A310, conformer A (peptide)
peptide: Ac-CLK[R8]QADIYK[S5]RFQAERHAREK
modifications: staple 4-11; not fully specified (C-terminus); also: extra N-terminal Cys labelled with BODIPY or FITC (label not settled), staple isomer A (cis)
notes: also called UBI-SAHNA303-A310 (A); A303 R8-A310 S5
Kd [3]: 76 µM

B11: UBI-SAHN A303-A310, conformer B (peptide)
peptide: Ac-CLK[R8]QADIYK[S5]RFQAERHAREK
modifications: staple 4-11; not fully specified (C-terminus); also: extra N-terminal Cys labelled with BODIPY or FITC (label not settled), staple isomer B (trans)
notes: also called UBI-SAHNA303-A310 (B)
Kd [3]: 211 µM

B12: A-UBI-SAHN A303-A310, conformer A (peptide)
peptide: Ac-CRQIKIWFQNRRMKWKKLK[R8]QADIYK[S5]RFQAERHAREK-NH2
modifications: staple 20-27; not fully specified; also: conformer A
notes: With N-terminal antennapedia; also called A-UBI-SAHNA303-A310 (A)
Kd [3]: 0.3 µM

B13: Co-UBI-SAHN I307-A314, conformer A (peptide)
peptide: Ac-CELAQLQAELD[R8]VQAVVQ[S5]DKQELRKL
modifications: staple 12-19; not fully specified (C-terminus); also: extra N-terminal Cys labelled with BODIPY or FITC (label not settled), staple isomer A (cis)
notes: 26 aa control peptide; also called Co-SAHN I307-A314 (A); I307 R8-A314 S5
Kd [5]: > 10000 µM

B14: Co-UBI-SAHN I307-A314, conformer B (peptide)
peptide: Ac-CELAQLQAELD[R8]VQAVVQ[S5]DKQELRKL
modifications: staple 12-19; not fully specified (C-terminus); also: extra N-terminal Cys labelled with BODIPY or FITC (label not settled), staple isomer B (trans)
notes: 26 aa control peptide; also called Co-SAHN I307-A314 (B)
Kd [5]: > 10000 µM

CLK[Aib]Q[Aib]DIYK[Aib]RFQ[Aib]ERH[Aib]REK (also: extra N-terminal Cys carries BODIPY or FITC label (not settled)) [UBI-AIB]
Kd [3]: > 10000 µM | Kd [5]: > 10000 µM

B15: A-UBI-SAHN D306-Q313 OMe (peptide)
peptide: Ac-CRQIKIWFQNRRMKWKKLKAQA[R8]IYKARF[S5]A[GluOMe]RHAR[GluOMe]K-NH2
modifications: staple 23-30; also: N-terminal Cys labelled with BODIPY or FITC, which one is not given here
Kd [6]: 0.06 µM
